Measured values: PMC11077872, “Sustainable production of multimeric and functional recombinant human adiponectin using genome-edited chickens” (Journal of Biological Engineering, 2024)
Where “and” joins values, the source holds several entries; their conditions need not be identical. Equal entries are not always repeated.

B1: recombinant human adiponectin (hADPN) from egg white of OVA ADPN knock-in genome-edited chickens (natural protein, UniProt Q15848 19-244, looked up)
chain: ETTTQGPGVLLPLPKGACTGWMAGIPGHPGHNGAPGRDGRDGTPGEKGEKGDPGLIGPKGDIGETGVPGAEGPRGFPGIQGRKGEPGEGAYVYRSAFSVGLETYVTIPNMPIRFTKIFYNQQNHYDGSTGKFHCNIPGLYYFAYHITVYMKDVKVSLFKKDKAMLFTYDQYQENNVDQASGSVLLHLEVGDQVWLQVYGEGERNGLYADNDNDSTFTGFLLYHDTN
notes: human adiponectin (ADPN), expressed from the chicken ovalbumin locus by knock-in; A mixture of hexamers and HMW multimers; also called EW-derived hADPN; EW-derived recombinant hADPN; source: egg white of OVA ADPN knock-in hens (G1-G4), diluted egg white; also purified from egg white (ammonium sulfate, HiTrap Q, Superdex 200 SEC)
B2: High-Five (Hi-5) cell-derived recombinant hADPN (natural protein, human, UniProt Q15848 19-244, looked up)
chain: ETTTQGPGVLLPLPKGACTGWMAGIPGHPGHNGAPGRDGRDGTPGEKGEKGDPGLIGPKGDIGETGVPGAEGPRGFPGIQGRKGEPGEGAYVYRSAFSVGLETYVTIPNMPIRFTKIFYNQQNHYDGSTGKFHCNIPGLYYFAYHITVYMKDVKVSLFKKDKAMLFTYDQYQENNVDQASGSVLLHLEVGDQVWLQVYGEGERNGLYADNDNDSTFTGFLLYHDTN
notes: human adiponectin (ADPN); Mostly trimers, with hexamers and a weak monomer signal; also called Hi-5 cell hADPN; Hi-5 cell-derived commercial hADPN; source: bought: PeproTech (450-24), Hi-5 cells
B3: serum-derived commercial hADPN (natural protein, human, UniProt Q15848 19-244, looked up)
chain: ETTTQGPGVLLPLPKGACTGWMAGIPGHPGHNGAPGRDGRDGTPGEKGEKGDPGLIGPKGDIGETGVPGAEGPRGFPGIQGRKGEPGEGAYVYRSAFSVGLETYVTIPNMPIRFTKIFYNQQNHYDGSTGKFHCNIPGLYYFAYHITVYMKDVKVSLFKKDKAMLFTYDQYQENNVDQASGSVLLHLEVGDQVWLQVYGEGERNGLYADNDNDSTFTGFLLYHDTN
notes: human adiponectin (ADPN), native protein from human serum; also called native serum-derived hADPN; human serum hADPN (positive control); source: bought: ProSpec (CYT-024), derived from human serum
B4: commercial recombinant hADPN derived from human embryonic kidney (HEK) 293 cells with a C-terminal FLAG tag (natural protein, UniProt Q15848 19-244, looked up)
chain: ETTTQGPGVLLPLPKGACTGWMAGIPGHPGHNGAPGRDGRDGTPGEKGEKGDPGLIGPKGDIGETGVPGAEGPRGFPGIQGRKGEPGEGAYVYRSAFSVGLETYVTIPNMPIRFTKIFYNQQNHYDGSTGKFHCNIPGLYYFAYHITVYMKDVKVSLFKKDKAMLFTYDQYQENNVDQASGSVLLHLEVGDQVWLQVYGEGERNGLYADNDNDSTFTGFLLYHDTN
notes: human adiponectin (ADPN); Mixture of trimers, hexamers and HMW forms; also called HEK293 cell hADPN; HEK293 cell-derived commercial hADPN; source: bought: Biovendor R&D (RD172023100), HEK293 cells; not shown: FLAG, C-terminal, kept

Experiments:
[1] = molecular target: the molecule itself; test: non-reducing SDS-PAGE with western blot; egg white of hens of generations G1-G4 diluted 500 times, mixed with native sample buffer (non-reducing), SDS-PAGE, anti-ADPN blot; with beta-mercaptoethanol and 95 °C mostly monomer at 28 kDa and a weak trimer signal
[2] = molecular target: the molecule itself; test: non-reducing SDS-PAGE with western blot; 100 ng of purified or commercial hADPN, mixed with native sample buffer (non-reducing), SDS-PAGE, anti-ADPN blot; with beta-mercaptoethanol and 95 °C mostly monomer, some trimer

| Protein | stoichiometry N [1] | stoichiometry N [2] |
| --- | --- | --- |
| B1 | 6 | – |
| B2 | – | 3 and 6 |
| B3 | – | 6 |
| B4 | – | 6 and 3 |
